± gives the standard deviation of the averaged measurements.
Tested on: ATP
Test: switch fluorescence ratio, 500 uM ATP over buffer (Cy3 cluster intensity, sum of 5 cycles each) (fold (ratio)); higher = stronger signal-on switching upon ATP binding; sequences stand for … in TCGTCGGCAGCGTCAGATGTGTATAAGAGACAGTTTTTTTTTTTTTTTTTTTTTTTTT…TC
Details: aptamer strand: ATP DNA aptamer (quencher-CACCTGGGGGAGTATTGCGGAGGAAGG + anchor), 100 nM annealed; ATP concentration: 500 uM
In short: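 Five buffer/ATP imaging cycles were run on Cy3-labelled switching-strand clusters on a modified Illumina MiSeq flow-cell, with NaOH stripping and re-annealing between cycles. In each cycle, clusters annealed to 100 nM quencher-labelled ATP aptamer were imaged in selection buffer, then after 15 min with 500 uM ATP at 22 °C. Per cluster, the fluorescence ratio is summed target-cycle over summed buffer-cycle Cy3 intensity, averaged per switch-domain sequence. Only clusters within 100-1000 RFU were kept.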
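Note: ATP exposure 15 min at 22 °C before imaging.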

ATCCTTGTGT
switch fluorescence ratio: 0.993 ± 0.02

TTTTGTGTCA
switch fluorescence ratio: 0.969 ± 0.029

AGAAAGACTT
switch fluorescence ratio: 1.04 ± 0.047

CCTTTTCGCG
switch fluorescence ratio: 1.106 ± 0.0051

ATAGGCGTTT
switch fluorescence ratio: 0.975 ± 0.018

TGGTTTGTTA
switch fluorescence ratio: 1.02 ± 0.022

CGAGGGTGGC
switch fluorescence ratio: 0.96 ± 0.11

AAGTGAATTA
switch fluorescence ratio: 1.0037 ± 0.00073

GGGGGGTAGC
switch fluorescence ratio: 0.9761 ± 0.0061

AGGCACGGGC
switch fluorescence ratio: 1.0064 ± 0.001

GGTGTGGGCA
switch fluorescence ratio: 0.998 ± 0.041

AGGGGCAAAG
switch fluorescence ratio: 1.01 ± 0.013

TGCCGGGCTT
switch fluorescence ratio: 1.01 ± 0.042

AGGGTAATGT
switch fluorescence ratio: 0.9718 ± 0.0036

TATATGTGTG
switch fluorescence ratio: 0.9661 ± 0.0073

TTTGGTGGCT
switch fluorescence ratio: 1.01 ± 0.015

AGAAAAGGGT
switch fluorescence ratio: 0.997 ± 0.03

TAAGCTCTCG
switch fluorescence ratio: 0.9915 ± 0.0027

ATTGGTATGC
switch fluorescence ratio: 1.03 ± 0.011

GTTAAAGCAT
switch fluorescence ratio: 1.01 ± 0.03

TTTTAAAAAT
switch fluorescence ratio: 1.03 ± 0.056

GTTAGTGGTT
switch fluorescence ratio: 1.02 ± 0.015

GGCGCGGGGG
switch fluorescence ratio: 1.03 ± 0.023

ATTTCTAATT
switch fluorescence ratio: 1.07 ± 0.15

TTCAGTTTTT
switch fluorescence ratio: 1 ± 0.026

TTCGTCTGCT
switch fluorescence ratio: 1.02 ± 0.024

AGGGGTGGCG
switch fluorescence ratio: 1.02 ± 0.014

GTTTTTACTA
switch fluorescence ratio: 0.998 ± 0.014

AAGAGAGTTT
switch fluorescence ratio: 0.9837 ± 0.00066

TATAACGGGA
switch fluorescence ratio: 1.05 ± 0.027

GTGTGCAGGG
switch fluorescence ratio: 0.945 ± 0.031

AGGGAATGAA
switch fluorescence ratio: 1.03 ± 0.085

TGGGTGGATC
switch fluorescence ratio: 1.02 ± 0.056

TGGTGTATTT
switch fluorescence ratio: 1.01 ± 0.011

GGAGATTTTA
switch fluorescence ratio: 1.04 ± 0.068

GAATTTGAGA
switch fluorescence ratio: 0.997 ± 0.019

GACATGTTTT
switch fluorescence ratio: 1.039 ± 0.0097

TTAATTTGGG
switch fluorescence ratio: 1.01 ± 0.024

CAGGGCTCCC
switch fluorescence ratio: 1.01 ± 0.02

GCCGCGGGAA
switch fluorescence ratio: 1 ± 0.051

AGCCGCCCCG
switch fluorescence ratio: 1.1 ± 0.1

GATTGGGAGC
switch fluorescence ratio: 1.01 ± 0.037

TTTGATGTTA
switch fluorescence ratio: 0.981 ± 0.034

AGTCTGACCA
switch fluorescence ratio: 1.018 ± 0.005

TTTGACATTT
switch fluorescence ratio: 1.02 ± 0.03

CCTTAGGGGC
switch fluorescence ratio: 1.03 ± 0.026

AGTATATAC
switch fluorescence ratio: 1.02 ± 0.029

AGTTATACAA
switch fluorescence ratio: 1.01 ± 0.037

CTCCTACACC
switch fluorescence ratio: 1.25 ± 0.041

AGGGTGAGAG
switch fluorescence ratio: 0.965 ± 0.025

TATTTATAAG
switch fluorescence ratio: 0.96 ± 0.015

CGCATCTGGG
switch fluorescence ratio: 1.09 ± 0.017

TCGTCGGTGG
switch fluorescence ratio: 1 ± 0.011

TCATCAGGGC
switch fluorescence ratio: 1.08 ± 0.034

TGAATTCGGG
switch fluorescence ratio: 1.01 ± 0.064

GTCAGAGGGG
switch fluorescence ratio: 0.979 ± 0.028

ATAAGAAGCG
switch fluorescence ratio: 1.02 ± 0.04

TTTAGACTAG
switch fluorescence ratio: 0.987 ± 0.017

GAAGGCGGGG
switch fluorescence ratio: 0.9933 ± 0.0054

CTGGTCGGGG
switch fluorescence ratio: 1.017 ± 0.0096

TATCGGATTC
switch fluorescence ratio: 1.02 ± 0.02

GTTGGTGTGT
switch fluorescence ratio: 0.9667 ± 0.0071

TTTCCGGGGT
switch fluorescence ratio: 1.28 ± 0.31

TCTGTGTTTT
switch fluorescence ratio: 1.04 ± 0.038

ATAGAGAAGC
switch fluorescence ratio: 1.03 ± 0.025

TAGATTTGTA
switch fluorescence ratio: 1.01 ± 0.021

GGGATAGCAC
switch fluorescence ratio: 1.09 ± 0.13

ATCATCTTGT
switch fluorescence ratio: 1.042 ± 0.0015

CCAGGGGTTT
switch fluorescence ratio: 2.66 ± 2.4

GGGATATAGG
switch fluorescence ratio: 0.9937 ± 0.0021

TTGTGTCAGT
switch fluorescence ratio: 0.9885 ± 0.0045

ACCAATATCT
switch fluorescence ratio: 1.01 ± 0.068

GATTGGGTAG
switch fluorescence ratio: 0.999 ± 0.02

TAATCAGAGC
switch fluorescence ratio: 1.02 ± 0.039

GGTGTTTTAG
switch fluorescence ratio: 0.989 ± 0.021

TAGGAACGAG
switch fluorescence ratio: 1 ± 0.024

TTAAACCTTG
switch fluorescence ratio: 1.15 ± 0.042

GCTGTGTAGA
switch fluorescence ratio: 1.073 ± 0.0021

ATTATGTATC
switch fluorescence ratio: 0.996 ± 0.011

AGGCGGGTTG
switch fluorescence ratio: 0.993 ± 0.026

GAGTCTAGGA
switch fluorescence ratio: 1.01 ± 0.039

GCTTTCATAT
switch fluorescence ratio: 0.9996 ± 0.0099

CAGAAGACAG
switch fluorescence ratio: 0.995 ± 0.071

AGGTAGATAA
switch fluorescence ratio: 0.99834 ± 0.00052

ACAGGACCGT
switch fluorescence ratio: 1.11 ± 0.038

TGAGGGAAGA
switch fluorescence ratio: 1.05 ± 0.051

TGGAAATTTG
switch fluorescence ratio: 1.01 ± 0.036

GAGTGGTGTT
switch fluorescence ratio: 0.983 ± 0.049

AAAAACATGG
switch fluorescence ratio: 1.012 ± 0.0096

ATTTGGTTGT
switch fluorescence ratio: 0.958 ± 0.021

AGGAGCGGGG
switch fluorescence ratio: 1 ± 0.1

GGGTACAGGG
switch fluorescence ratio: 1 ± 0.02

ATCGTCACGG
switch fluorescence ratio: 1.022 ± 0.0012

AGCTGGGGTG
switch fluorescence ratio: 1.03 ± 0.06

AATGTCGCTG
switch fluorescence ratio: 1.003 ± 0.0018

GGGGAAAGGT
switch fluorescence ratio: 0.989 ± 0.029

TTATATGGAG
switch fluorescence ratio: 0.979 ± 0.034

AGTTGGTCGG
switch fluorescence ratio: 0.975 ± 0.031

TAATTTGTTG
switch fluorescence ratio: 0.988 ± 0.028

AGTGGGTGCT
switch fluorescence ratio: 1.02 ± 0.039

TGGAAATAAA
switch fluorescence ratio: 0.9968 ± 0.0051

ATCTGTCAGT
switch fluorescence ratio: 0.9807 ± 0.0092

TATGATATGC
switch fluorescence ratio: 1.032 ± 0.0011

GATTTAAAGC
switch fluorescence ratio: 0.984 ± 0.034

AATCACGGAG
switch fluorescence ratio: 1.019 ± 0.0061

TGGGATTCCC
switch fluorescence ratio: 1.01 ± 0.017

TGCTTAGTTC
switch fluorescence ratio: 0.959 ± 0.046

GCGGAGGCTG
switch fluorescence ratio: 0.97393 ± 0.00027

CCTATTATTT
switch fluorescence ratio: 1 ± 0.051

CAAATAGCTA
switch fluorescence ratio: 1.0363 ± 0.00014

ACGGTAACGC
switch fluorescence ratio: 1.02 ± 0.011

TTTGGAGGTT
switch fluorescence ratio: 1.11 ± 0.2

GAATTGGT
switch fluorescence ratio: 1.01 ± 0.012

TAGGGTCTGG
switch fluorescence ratio: 0.991 ± 0.04

TAAAAATTTT
switch fluorescence ratio: 0.999 ± 0.01

ATGTGTCGTC
switch fluorescence ratio: 1.01 ± 0.057

ATAAGTGCAT
switch fluorescence ratio: 1 ± 0.016

TTCGTATTTT
switch fluorescence ratio: 0.992 ± 0.026

GCGTAAAGTG
switch fluorescence ratio: 0.994 ± 0.038

AAACAAAAGT
switch fluorescence ratio: 1.01 ± 0.037

AACGTTGGGC
switch fluorescence ratio: 1.03 ± 0.059

TTCAGGCGGT
switch fluorescence ratio: 0.992 ± 0.025

TTCCGGGTTG
switch fluorescence ratio: 1.34 ± 0.35

AGCACGGTTA
switch fluorescence ratio: 1.04 ± 0.049

ATACTGACAT
switch fluorescence ratio: 1.2 ± 0.053

ACGGGATTTG
switch fluorescence ratio: 0.9822 ± 0.0073

CATAAGATGC
switch fluorescence ratio: 1.03 ± 0.027

TCTAGTTAGG
switch fluorescence ratio: 1.0115 ± 0.00098

CCGTGAGGTA
switch fluorescence ratio: 1 ± 0.026

TGGGAGACAA
switch fluorescence ratio: 0.9815 ± 0.001

ATGATCCCCG
switch fluorescence ratio: 1.05 ± 0.025

GTGAGCCGTT
switch fluorescence ratio: 1.04 ± 0.025

GTGTTTTGAA
switch fluorescence ratio: 1.01 ± 0.022

TTGACACGGG
switch fluorescence ratio: 1.11 ± 0.025

TTGGTAGGAG
switch fluorescence ratio: 0.985 ± 0.042

ATAAAGTTCC
switch fluorescence ratio: 1.13 ± 0.038

TCTGGGAATT
switch fluorescence ratio: 1.046 ± 0.0027

AAGTATGTCT
switch fluorescence ratio: 1 ± 0.039

TTTTAATGAT
switch fluorescence ratio: 0.983 ± 0.024

AGAACATTGG
switch fluorescence ratio: 0.985 ± 0.013

GCGTTAGGGG
switch fluorescence ratio: 0.979 ± 0.016

GAGTTACAGG
switch fluorescence ratio: 1.04 ± 0.022

AATTTACAGC
switch fluorescence ratio: 1.03 ± 0.042

TTCTTTACAC
switch fluorescence ratio: 1.039 ± 0.0025

TAATTCGGGG
switch fluorescence ratio: 0.97 ± 0.057

CTCAGTAGGC
switch fluorescence ratio: 1.13 ± 0.066

GGGGAAGTCT
switch fluorescence ratio: 0.984 ± 0.093

ACGGTGGTGG
switch fluorescence ratio: 1.12 ± 0.12

TTATGTTAGT
switch fluorescence ratio: 1.01 ± 0.056

GGTCCGGGCG
switch fluorescence ratio: 0.997 ± 0.024

TATAGGGTCA
switch fluorescence ratio: 0.979 ± 0.031

ATGGTCTGTT
switch fluorescence ratio: 1 ± 0.036

TTCTTTCGAG
switch fluorescence ratio: 1.026 ± 0.0045

CGGGGCACAG
switch fluorescence ratio: 1.005 ± 0.0014

TCAGTGCGGG
switch fluorescence ratio: 0.98 ± 0.047

TGCTGGTAGC
switch fluorescence ratio: 0.995 ± 0.042

CATTGTTAGG
switch fluorescence ratio: 1.01 ± 0.004

TTGGATTTAA
switch fluorescence ratio: 1.02 ± 0.012

TAAGGGTTAA
switch fluorescence ratio: 0.994 ± 0.012

CGGGGAATGG
switch fluorescence ratio: 1.01 ± 0.03

TATTAAATTC
switch fluorescence ratio: 0.984 ± 0.039

CAGAGTCGGT
switch fluorescence ratio: 1 ± 0.024

GATGCGGGAC
switch fluorescence ratio: 1.34 ± 0.07

GTTTGGGGCC
switch fluorescence ratio: 1.057 ± 0.01

TAAAAATGGT
switch fluorescence ratio: 1.01 ± 0.024

CGCAACTATG
switch fluorescence ratio: 1.56 ± 0.026

GTTAAAGATT
switch fluorescence ratio: 1.001 ± 0.0083

TTAGATGAAG
switch fluorescence ratio: 0.987 ± 0.031

AGTTGGTGAG
switch fluorescence ratio: 0.98 ± 0.034

TGGGGCGGGG
switch fluorescence ratio: 0.983 ± 0.018

CAATTGGGGG
switch fluorescence ratio: 0.9968 ± 0.0078

AGGTCCCGTT
switch fluorescence ratio: 0.993 ± 0.036

TTAGCGACGG
switch fluorescence ratio: 0.992 ± 0.03

TTAATGGGCG
switch fluorescence ratio: 1.09 ± 0.18

GGTCTCCGGC
switch fluorescence ratio: 1.01 ± 0.065

TGGGGCTTCG
switch fluorescence ratio: 0.92 ± 0.077

TTTGTGTAGG
switch fluorescence ratio: 1.02 ± 0.049

GCAGTTAAAC
switch fluorescence ratio: 1.04 ± 0.045

AAGCGAGG
switch fluorescence ratio: 0.9872 ± 0.0032

AGGGAGTTGG
switch fluorescence ratio: 0.995 ± 0.032

TATGCTTGGT
switch fluorescence ratio: 1.015 ± 0.003

AAACAGCGTG
switch fluorescence ratio: 1.01 ± 0.017

AGGCAGGGGG
switch fluorescence ratio: 1.03 ± 0.021

GGGCGCGGGG
switch fluorescence ratio: 1.01 ± 0.023

ATATTTTTGT
switch fluorescence ratio: 1.03 ± 0.014

CGGGGTCAAT
switch fluorescence ratio: 1.85 ± 1.2

CAATTACTAG
switch fluorescence ratio: 1.01 ± 0.029

TTTTTGGGCG
switch fluorescence ratio: 1.01 ± 0.022

ATTCAACAAT
switch fluorescence ratio: 1 ± 0.016

GGGGGCAGGG
switch fluorescence ratio: 0.998 ± 0.065

GTGAGGTCGG
switch fluorescence ratio: 0.968 ± 0.015

TTACCGGATT
switch fluorescence ratio: 0.993 ± 0.022

AGTGCAGGTT
switch fluorescence ratio: 0.97386 ± 7.1e-05

GTTTGGTCTT
switch fluorescence ratio: 0.95 ± 0.017

TTTAGGCATG
switch fluorescence ratio: 0.9966 ± 0.0076

TTTTCTCCGA
switch fluorescence ratio: 1.2 ± 0.26

GGGTCGGCAC
switch fluorescence ratio: 0.968 ± 0.035

TAAGTTTTGG
switch fluorescence ratio: 0.974 ± 0.017

AACTGTTGG
switch fluorescence ratio: 0.9895 ± 0.006

GCCGGGATGG
switch fluorescence ratio: 1 ± 0.031
